From patent publication US20230322924A1 (Janssen / Centocor, published 2023) come the findings set out here.

Assay [1] deals with T1, human PSMA on cells (LNCaP) (human, UniProt Q04609 1-750).
T1 construct: whole, on cells; also called LNCaP cells
The experiment in a line: flow cytometry, mammalian Fab supernatant on LNCaP cells, anti-human kappa-RPE. As for the experimental part:
Individual Fab clones were isolated from the round 3 output of all panning experiments following pIX excision. Fab clones were tested for binding to chimp and cyno PSMA expressing HEK cells, as well as to human PSMA on LNCaP cells. Briefly, PSMA expressing cells were aliquoted into a V-bottom plate (CoStar 3357) at a density of 200,000 per well and incubated with (100 μl) supernatants expressing Fab fragments for 1 hour on ice. Cells were washed twice with PBS containing 2% FBS, and stained with a mouse anti-human kappa-RPE antibody (Life Technologies cat #MH10514) for 1 hour on ice. Cells were washed twice with PBS containing 2% FBS and resuspended in […] of the same wash buffer. Plates were read on a BD FACS Array flow cytometer. FACS data was analyzed in FlowJo software by live gating the healthy population of cells using forward scatter and side scatter, and then analyzing the cells within this gate for PE staining. Mean fluorescence intensity (MFI) was calculated and exported into Microsoft Excel. […] Fabs were sequenced and moved forward for cloning into mammalian expression vector for rescreening. True positives were selected from the binding of mammalian cell expressed Fab supernatants to PSMA-expressing cell lines.
FIGS. 22A, 22B, 22C and 22D show the titration curves for anti-PSMA panning hits vs. LNCaP cells. […] Binding profiles among hits were compared across cell lines expressing different species of PSMA.

A further assay addresses T2, Rh-CD19 (UniProt P15391 20-291, limits assumed).
T2 construct: rh read as recombinant human
T2 sequence (looked up): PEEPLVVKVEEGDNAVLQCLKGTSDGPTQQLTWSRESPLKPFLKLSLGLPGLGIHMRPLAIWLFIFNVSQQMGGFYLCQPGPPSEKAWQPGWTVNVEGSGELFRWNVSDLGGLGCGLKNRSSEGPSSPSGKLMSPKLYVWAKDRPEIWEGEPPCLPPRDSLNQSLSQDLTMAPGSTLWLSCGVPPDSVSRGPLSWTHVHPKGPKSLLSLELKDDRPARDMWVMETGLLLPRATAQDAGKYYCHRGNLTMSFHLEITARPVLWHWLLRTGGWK
In words: Biacore 8K SPR, antibody over immobilised protein. As for the experimental part: (§1) Non-specific binding of the lead molecule to unrelated surfaces is determined by biosensor technology (Biacore 8K). Antibody is passed over SPR surfaces coated with unrelated proteins. […] Irrelevant surfaces include negatively charged protein (Soy Trypsin Inhibitor), positively charged protein (Lysozyme and β-defensin), hydrophobic (Rh-integrin a4b7), human IgG, sticky protein (Rh-CD19). Proper controls are used in this experiment. Lead is flown over two surfaces, one is a blank and the other has a molecule directly immobilized. The response unit (RU) level is determined by subtracting the blank RU from the test surface RU. […] A response unit ≥100 predicts high risks for non-specific binding to charged/hydrophobic/IgG surfaces which would create challenges during manufacturing and translate to poor PK properties.
On the technique in general: In SPR one partner is held on a chip, and binding of the other changes the refractive index at the surface.

The next assay has as its target T3, Rh-integrin a4b7 (UniProt P13612 34-977; P26010 20-723, limits assumed).
T3 construct: rh read as recombinant human
In words: Biacore 8K SPR, antibody over immobilised protein. As for the experimental part:
as §1

The target of another assay is Human CD33 full length (human, UniProt P20138 18-364). The experiment in a line: cell-based or functional assay.
The target in the next assay is T4, Human CD33 ECD-HSA (human).
T4 construct: CD33 ECD fused at the C-terminus to monomeric HSA (C58S) and a six-histidine tag; also called C33W2; huCD33 ECD-HSA
In words: SPRi off-rate screen (IBIS MX96).

Assay [2] deals with T5, TMEW1 (TMEFF2-FL-ECD-His-Avitag) (human, UniProt Q9UIK5 41-320).
T5 construct: Human TMEFF2 ECD with C-terminal G3S, 6xHis tag and Avi-tag, all in the entry; also called TMEFF2 ECD
T5 sequence: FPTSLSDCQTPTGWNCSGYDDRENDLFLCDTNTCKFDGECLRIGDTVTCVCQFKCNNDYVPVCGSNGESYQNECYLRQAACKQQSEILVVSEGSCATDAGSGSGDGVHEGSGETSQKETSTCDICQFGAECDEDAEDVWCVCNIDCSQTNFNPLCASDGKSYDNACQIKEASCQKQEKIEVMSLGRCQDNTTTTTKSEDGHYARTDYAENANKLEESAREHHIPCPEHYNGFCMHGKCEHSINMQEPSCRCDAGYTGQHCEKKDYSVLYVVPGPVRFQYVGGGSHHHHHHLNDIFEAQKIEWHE
In words: Biacore 8K SPR, mAb captured on anti-human Fc, single cycle kinetics. As for the experimental part:
The binding of anti-TMEFF2 mAbs to human TMEFF2 ECD was measured by Biacore 8K SPR. The format of the assay was to capture the mAbs using a high density anti-human Fc surface, then inject human TMEFF2 concentration titration using a single cycle kinetics method. […] The mAbs were captured on the anti-human Fc IgG surface at 0.5 μg/ml (˜200-300 RU) on flow cell 2. The running buffer was then changed to HBSP+100 ug/ml BSA. TMEFF2 ECD at 30 nM concentration in 3-fold dilution series was injected from low to high concentration using single cycle kinetics method. The off-rate was monitored 30 minutes after the last or highest concentration injection and then the surface was regenerated using 0.8% phosphoric acid (Bio-Rad). A buffer blank run, capturing the same mAbs and using the same conditions of sample run was also completed. The raw data were processed by subtracting two sets of reference data from the response data: 1) reference flow cell 1 subtracted from sample flow cell 2 and 2) buffer blank run from experimental run. The processed data at all concentrations for each mAb were globally fit to a 1:1 simple Langmuir binding model to extract estimates of the kinetic (kon, koff) and affinity (KD) constants.

Chain of Human CD33 full length (P20138 18-364 limits assumed): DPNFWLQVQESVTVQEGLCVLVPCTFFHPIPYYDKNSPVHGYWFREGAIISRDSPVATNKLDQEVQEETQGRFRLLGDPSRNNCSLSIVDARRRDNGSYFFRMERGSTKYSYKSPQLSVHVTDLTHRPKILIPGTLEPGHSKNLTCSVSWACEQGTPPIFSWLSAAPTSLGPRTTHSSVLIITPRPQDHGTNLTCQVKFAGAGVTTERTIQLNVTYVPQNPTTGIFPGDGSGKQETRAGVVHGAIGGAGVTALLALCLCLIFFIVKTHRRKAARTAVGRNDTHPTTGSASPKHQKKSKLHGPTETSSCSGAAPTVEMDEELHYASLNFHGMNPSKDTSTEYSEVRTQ
T1 sequence (Q04609 whole entry): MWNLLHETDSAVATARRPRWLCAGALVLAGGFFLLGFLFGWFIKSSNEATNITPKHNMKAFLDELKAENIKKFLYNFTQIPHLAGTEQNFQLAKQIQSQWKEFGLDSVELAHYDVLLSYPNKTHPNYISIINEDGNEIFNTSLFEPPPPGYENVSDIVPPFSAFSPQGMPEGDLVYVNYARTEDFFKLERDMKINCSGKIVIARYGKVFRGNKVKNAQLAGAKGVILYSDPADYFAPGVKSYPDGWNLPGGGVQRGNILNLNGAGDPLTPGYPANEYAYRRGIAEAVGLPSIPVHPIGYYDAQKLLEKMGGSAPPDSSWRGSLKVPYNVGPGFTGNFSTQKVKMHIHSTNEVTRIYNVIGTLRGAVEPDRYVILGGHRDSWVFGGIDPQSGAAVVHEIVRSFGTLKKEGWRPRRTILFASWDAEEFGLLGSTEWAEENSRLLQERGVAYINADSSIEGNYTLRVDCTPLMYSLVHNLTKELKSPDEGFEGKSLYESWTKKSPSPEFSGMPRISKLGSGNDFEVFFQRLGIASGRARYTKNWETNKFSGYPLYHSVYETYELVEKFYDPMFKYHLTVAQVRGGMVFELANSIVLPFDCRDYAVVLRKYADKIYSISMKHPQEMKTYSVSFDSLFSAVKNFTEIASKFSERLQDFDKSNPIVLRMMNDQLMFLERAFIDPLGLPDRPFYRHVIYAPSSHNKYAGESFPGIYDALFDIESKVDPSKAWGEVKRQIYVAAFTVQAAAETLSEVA

B1: PSMM81 (Fab, V domains shown)
VH: QVQLVQSGAEVKKPGSSVKVSCKASGGTFDDYAISWVRQAPGQGLEWMGRIDPIEGTANYAQKFQGRVTITADESTSTAYMELSSLRSEDTAVYYCARDRYYYDGVYWYSDYFDYWGQGTLVTVS
VL: not shown
notes: Mammalian Fab supernatant; also called PSMB80
What is called EC50 (read off the curve) is the midpoint of the concentration-response curve. Lower therefore signals greater potency. For the molecule B1, the “EC50 (read off the curve)” value in assay [1] was approximately 0.08 µg/mL.

B2: TMCB150 (bispecific antibody, human IgG4 S228P, kappa, lambda, F234A L235A)
heavy 1: not shown
light 1: not shown
heavy 2: QVQLQQSGPRLVRPSQTLSLTCAISGDSVFNNNAAWSWIRQSPSRGLEWLGRTYYRSKWLYDYAVSVKSRITVNPDTSRNQFTLQLNSVTPEDTALYYCARGYSSSFDYWGQGTLVTVSSASTKGPSVFPLAPCSRSTSESTAALGCLVKDYFPEPVTVSWNSGALTSGVHTFPAVLQSSGLYSLSSVVTVPSSSLGTKTYTCNVDHKPSNTKVDKRVESKYGPPCPPCPAPEAAGGPSVFLFPPKPKDTLMISRTPEVTCVVVDVSQEDPEVQFNWYVDGVEVHNAKTKPREEQFNSTYRVVSVLTVLHQDWLNGKEYKCKVSNKGLPSSIEKTISKAKGQPREPQVYTLPPSQEEMTKNQVSLTCLVKGFYPSDIAVEWESNGQPENNYKTTPPVLDSDGSFLLYSKLTVDKSRWQEGNVFSCSVMHEALHNHYTQKSLSLSLGK
light 2: QSALTQPASVSGSPGQSITISCTGTSSNIGTYKFVSWYQQHPDKAPKVLLYEVSKRPSGVSSRFSGSKSGNTASLTISGLQAEDQADYHCVSYAGSGTLLFGGGTKLTVLGQPKAAPSVTLFPPSSEELQANKATLVCLISDFYPGAVTVAWKADSSPVKAGVETTTPSKQSNNKYAASSYLSLTPEQWKSHRSYSCQVTHEGSTVEKTVAPTECS
notes: IgG4 PAA; also called TMEB762×CD3B376
As for B2, the binding result with Rh-CD19 and with Rh-integrin a4b7 was “no binding (tested: response unit ≥100 predicts high risks)” throughout.

B3: C3CB7 (bispecific antibody, IgG4, V domains shown)
VH 1: QVQLVQSGSELRKPGASVKVSCKASGYTFTNYAMNWVRQAPGQGLEWMGWINTNTGNPTYAQGFTGRFVFSLDTSVSSAYLQISSLKAEDTAMYYCATDRDRGTDYWGQGTLVTVSS
VL 1: QSALTQPASVSGSPGQSITISCTGTSSDVGDYNYVSWYQQHPGKVPKLMIYDVSNRPSGVSNRFSGSMSGNTASLTISGLQAEDEADYYCSSYSSSSALEVFGGGTKLTVL
VH 2: EVQLVESGGGLVQPGGSLRLSCAASGFTFNTYAMNWVRQAPGKGLEWVARIRSKYNNYATYYAASVKGRFTISRDDSKNSLYLQMNSLKTEDTAVYYCARHGNFGNSYVSWFAYWGQGTLVTVSS
VL 2: QTVVTQEPSLTVSPGGTVTLTCRSSTGAVTTSNYANWVQQKPGQAPRGLIGGTNKRAPGTPARFSGSLLGGKAALTLSGVQPEDEAEYYCALWYSNLWVFGGGTKLTVL
Regarding B3, the “Primary AML Cell Killing EC50” value with Human CD33 full length turned out to be 332 pM.

B4: C3CB97 (bispecific antibody, IgG4, V domains shown)
VH 1: QVQLVQSGSELRKPGASVKVSCKASGYTFTNYAMNWVRQAPGQGLEWMGWINTNTGNPTYAQGFTGRFVFSLDTSVSSAYLQISSLKAEDTAMYYCATDRDRGTDYWGQGTLVTVSS
VL 1: QSALTQPASVSGSPGQSITISCTGTSSDVGDYNYVSWYQQHPGKVPKLMIYDVSNRPSGVSNRFSGSMSGNTASLTISGLQAEDEADYYCSSYSSSSALEVFGGGTKLTVL
VH 2: QVQLQQSGPRLVRPSQTLSLTCAISGDSVFNNNAAWSWIRQSPSRGLEWLGRTYYRSKWLYDYAVSVKSRITVNPDTSRNQFTLQLNSVTPEDTALYYCARGYSSSFDYWGQGTLVTVSS
VL 2: QSALTQPASVSGSPGQSITISCTGTSSNIGTYKFVSWYQQHPDKAPKVLLYEVSKRPSGVSSRFSGSKSGNTASLTISGLQAEDQADYHCVSYAGSGTLLFGGGTKLTVL
Turning to B4, in the assay with Human CD33 full length, the “Primary AML Cell Killing EC50” value was approximately 232 pM.

B5: C3CB103 (bispecific antibody, IgG4, V domains shown)
VH 1: QVQLVESGGGVVQPGRSLRLSCVASGFTFSSYGMHWVRQAPGKGLEWVAVISYDGSNKYYADSVKGRFTISRDNSKNTLYLQMNSLRAEGTAVYYCAKDFRSFDWLPPDSASYHGMDVWGQGTTVTVSS
VL 1: SYELTQPPSVSVSPGQTASITCSGDKLGDKYACWYQQKPGQSPVLVIYQDGKRPSGIPERFSGSNFGNKATLTISGTQAMDEADYYCQAWDRNTVVFGGGTKLTVL
VH 2: QVQLQQSGPRLVRPSQTLSLTCAISGDSVFNNNAAWSWIRQSPSRGLEWLGRTYYRSKWLYDYAVSVKSRITVNPDTSRNQFTLQLNSVTPEDTALYYCARGYSSSFDYWGQGTLVTVSS
VL 2: QSALTQPASVSGSPGQSITISCTGTSSNIGTYKFVSWYQQHPDKAPKVLLYEVSKRPSGVSSRFSGSKSGNTASLTISGLQAEDQADYHCVSYAGSGTLLFGGGTKLTVL
With B5, the “Primary AML Cell Killing EC50” value in the assay with Human CD33 full length was found to be 4190 pM.

B6: C3CB102 (bispecific antibody, IgG4, V domains shown)
VH 1: not shown
VL 1: SYELTQPPSVSVSPGQTASITCSGNKLGAKFASWYQQKPGQSPVLVIYQDNKRPSGIPERFSGSNSGNTATLTISGTQAVDEADYYCQAWDSSTVVFGGGTKLTVL
VH 2: QVQLQQSGPRLVRPSQTLSLTCAISGDSVFNNNAAWSWIRQSPSRGLEWLGRTYYRSKWLYDYAVSVKSRITVNPDTSRNQFTLQLNSVTPEDTALYYCARGYSSSFDYWGQGTLVTVSS
VL 2: QSALTQPASVSGSPGQSITISCTGTSSNIGTYKFVSWYQQHPDKAPKVLLYEVSKRPSGVSSRFSGSKSGNTASLTISGLQAEDQADYHCVSYAGSGTLLFGGGTKLTVL
In the case of B6, in the assay with Human CD33 full length, the “Primary AML Cell Killing EC50” value stood at 4970 pM.

B7: C33B782 (antibody, IgG4, V domains shown)
VH: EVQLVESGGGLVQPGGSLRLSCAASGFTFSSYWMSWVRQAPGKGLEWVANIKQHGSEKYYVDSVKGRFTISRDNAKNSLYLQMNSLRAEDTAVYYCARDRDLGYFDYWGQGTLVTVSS
VL: SYELTQPPSVSVSPGQTASITCSGNKLGAKFASWYQQKPGQSPVLVIYQDNKRPSGIPERFSGSNSGNTATLTISGTQAVDEADYYCQAWDSSTVVFGGGTKLTVL
notes: also called C33H72/C33L40; C33F82
A word on the koff: it is the first-order rate constant of dissociation. As for B7, the koff with Human CD33 ECD-HSA is 0.000258 s⁻¹.

B8: C33B792 (antibody, IgG4, V domains shown)
VH: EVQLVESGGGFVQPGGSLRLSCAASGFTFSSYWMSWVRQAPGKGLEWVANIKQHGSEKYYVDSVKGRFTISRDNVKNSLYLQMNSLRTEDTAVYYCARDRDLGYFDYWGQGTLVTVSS
VL: SYELTQPPSVSVSPGQTASITCSGDKLGNKYASWYQQKPGQSPVLVIYQDTKRPSGIPERVSGSNSGNTATLTISGTQAMDEADYHCQAWDSSTVVFGGGTKLTVL
notes: also called C33H87/C33L35; C33F92
For the molecule B8, the koff with Human CD33 ECD-HSA came out at 0.000427 s⁻¹.

B9: TMEB757 (antibody, human IgG4 S228P, kappa, F234A L235A, V domains shown)
VH: EVQLLESGGGLVQPGGSLRLSCAASGFTFSSYSMSWVRQAPGKGLEWVSVISGSGGFTDYADSVKGRFTISRDNSKNTLYLHMNSLRAEDTAVYYCARMPLNSPHDYWGQGTLVTVSS
VL: AIQMTQSPSSLSASVGDRVTITCRASQGIRNDLGWYQQKPGKAPKLLIYAASSLQSGVPSRFSGSGSGTDFTLTISSLQPEDFATYYCLQDYNYPLTFGGGTKVEIKR
notes: IgG4 PAA anti-TMEFF2; re-engineered variant of TMEB675; also called TMEH460/B76L85; TMEFB757
By Kd is commonly meant the constant that tells how readily two partners part at equilibrium. Low readings indicate higher affinity, high ones lower affinity. The term kon denotes a measure of how fast the partners come together. Lower therefore signals slower complex formation. In assay [2], B9 registered a Kd of 310 pM, a koff of 0.000167 s⁻¹ and a kon of 542000 M⁻¹ s⁻¹.
